Measured values taken from PMC5536003.
Values belong to the molecule of their own block, whether it stands above or below them.

Target: CXC chemokine receptor (CXCR)3, CXCR3A (UniProt P49682)
Chain of UniProt P49682 (P49682 whole entry): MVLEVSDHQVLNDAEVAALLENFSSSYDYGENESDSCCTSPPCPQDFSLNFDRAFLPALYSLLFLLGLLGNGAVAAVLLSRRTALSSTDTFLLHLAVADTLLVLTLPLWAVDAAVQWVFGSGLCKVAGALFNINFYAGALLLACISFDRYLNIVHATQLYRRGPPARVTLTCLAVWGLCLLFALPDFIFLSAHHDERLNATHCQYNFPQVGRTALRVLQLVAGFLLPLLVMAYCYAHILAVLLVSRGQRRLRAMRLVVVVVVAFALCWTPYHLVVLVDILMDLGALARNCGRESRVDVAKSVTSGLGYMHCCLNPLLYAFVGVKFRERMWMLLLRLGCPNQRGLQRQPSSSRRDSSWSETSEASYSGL

increase of [Ca2+]i in Fura-2-loaded CHO/CXCR3A cells stimulated with 3 ng/mL CXCL10 (no GAG): 107 nM
Molecule: CXC chemokine ligand (CXCL)10 (from UniProt P02778 22-98)

increase of [Ca2+]i in Fura-2-loaded CHO/CXCR3A cells stimulated with 3 ng/mL CXCL11 (no GAG): 304 nM
B1: CXC chemokine ligand (CXCL)11 (ligand)
chain: FPMFKRGRCLCIGPGVKAVKVADIEKASIMYPSNNCDKIEVIITLKENKGQRCLNPKSKQARLIIKKVERKNF

increase of [Ca2+]i in Fura-2-loaded CHO/CXCR3A cells stimulated with 1 µg/mL CXCL9 (no GAG): 598 nM
B2: CXC chemokine ligand (CXCL)9 (ligand)
chain: TPVVRKGRCSCISTNQGTIHLQSLKDLKQFAPSPSCEKIEIIATLKNGVQTCLNPDSADVKELIKKWEKQVSQKKKQKNGKKHQKKKVLKVRKSQRSRQKKTT
